System: NmPAL (PAS-ANTAR-LOV photoreceptor) (Nakamurella multipartita)
Experiment: fluorescence anisotropy
Conditions: FA: 4 nM RNA, 12 mM HEPES/HCl pH 7.7, 135 mM KCl, 10 mM NaCl, 1 mM MgCl2, 10% w/v glycerol, 100 ug/mL BSA, dark, or after 60 s blue light (465 nm), temperature …

Row | Sequence | Kd (blue light, two-site fit, high-affinity site (second transition micromolar)) [nM] | Kd (darkness, text elsewhere calls this micromolar binding) [nM] | Kd (blue light, text says 83-fold reduced) [nM]
1 | ACCUUCGGUUCAGCAGCGAGCCG [58 (motif 3), TAMRA] | 3.5 | > 3000 | –
2 | ACCUUCGGUUCAGCUGCGAGCCG [58.M21, TAMRA] | – | – | 250

Source: PMC10966536
